# Measurements as given in patent US20230272086A1 (CHIA TAI TIANQING PHARMACEUTICAL GROUP, published 2023).
# T1: human ST2 (hST2, Interleukin-1 receptor-like 1 isoform A) on cells (human, UniProt Q01638 19-556)
# T1 sequence: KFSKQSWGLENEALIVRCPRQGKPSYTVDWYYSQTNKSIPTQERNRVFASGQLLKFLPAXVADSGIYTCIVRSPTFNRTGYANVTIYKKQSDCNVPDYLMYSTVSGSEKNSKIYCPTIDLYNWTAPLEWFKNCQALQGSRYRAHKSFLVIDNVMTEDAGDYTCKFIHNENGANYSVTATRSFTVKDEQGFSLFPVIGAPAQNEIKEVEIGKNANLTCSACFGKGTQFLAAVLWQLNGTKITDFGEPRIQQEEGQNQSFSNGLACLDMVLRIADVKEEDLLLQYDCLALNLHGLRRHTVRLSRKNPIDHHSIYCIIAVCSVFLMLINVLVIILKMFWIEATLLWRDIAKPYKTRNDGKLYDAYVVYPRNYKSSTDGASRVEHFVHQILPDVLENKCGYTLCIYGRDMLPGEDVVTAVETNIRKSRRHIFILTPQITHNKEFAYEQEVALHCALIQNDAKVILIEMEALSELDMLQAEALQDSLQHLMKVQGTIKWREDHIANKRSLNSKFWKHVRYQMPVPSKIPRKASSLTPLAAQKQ
# T2: cynomolgus monkey ST2 antigen (Cyno-ST2-his, Sino biological, 90915-C08H) (cynomolgus monkey, UniProt Q01638 19-328 (human entry))
# T2 construct: Bought protein; not shown: his tag
# T2 chain: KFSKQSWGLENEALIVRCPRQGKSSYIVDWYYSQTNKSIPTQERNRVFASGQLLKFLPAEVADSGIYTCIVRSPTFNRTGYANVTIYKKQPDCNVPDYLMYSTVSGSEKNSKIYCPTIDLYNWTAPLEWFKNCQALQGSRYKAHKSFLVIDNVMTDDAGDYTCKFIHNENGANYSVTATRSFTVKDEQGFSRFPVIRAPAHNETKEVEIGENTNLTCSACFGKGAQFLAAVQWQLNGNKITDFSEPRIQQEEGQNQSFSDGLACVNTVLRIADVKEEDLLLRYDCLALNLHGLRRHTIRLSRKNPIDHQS
# T3: IL1R7/IL-18RAcP (Sino biological, 10176-H08H) (UniProt O95256 20-356)
# T3 construct: Bought protein
# T3 sequence (looked up): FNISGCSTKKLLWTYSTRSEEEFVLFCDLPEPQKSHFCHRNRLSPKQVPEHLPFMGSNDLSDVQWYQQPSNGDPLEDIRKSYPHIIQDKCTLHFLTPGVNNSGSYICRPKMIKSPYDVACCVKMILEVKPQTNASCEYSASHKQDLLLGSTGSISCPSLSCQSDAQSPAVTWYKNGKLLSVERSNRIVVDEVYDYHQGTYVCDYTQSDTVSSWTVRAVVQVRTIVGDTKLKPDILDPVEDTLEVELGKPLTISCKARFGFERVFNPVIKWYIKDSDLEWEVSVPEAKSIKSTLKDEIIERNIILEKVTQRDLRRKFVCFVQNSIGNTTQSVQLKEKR
# Tests used:
# [1] = biological target: T1, human ST2 (hST2, Interleukin-1 …); assay: cell-based or functional assay
# [2] = biological target: T2, cynomolgus monkey ST2 antigen …; assay: ELISA, plate coated with Cyno-ST2-his
# Protocol: ST2 binding screening and analysis of antibodies were performed by ELISA using hST2-ECD-mFc (for assays of chimeric and humanized antibodies), hST2-ECD-hFc protein (for assays of hybridoma antibodies) and Cyno-ST2-his (Sino biological, 90915-C08H) as antigens. A high-adsorption 96-well plate (Costar, 9018) was coated with 2 µg/mL hST2-ECD-mFc or Cyno-ST2-his antigen at 100 µL/well and incubated overnight at 4° C. After the antigen not adsorbed was well washed off, the non-specific binding sites were blocked with a blocking buffer (PBS containing 2% bovine serum albumin). After the plate was washed three times with a washing buffer (PBS containing 0.05% (v/v) Tween 20), the anti-ST2 antibodies (serially diluted 3-fold from an initial concentration of 10 nM to 8 concentrations: 3.333 nM, 1.111 nM, 0.370 nM, 0.123 nM, 0.041 nM, 0.014 nM, 0.005 nM, and 0.002 nM) were added at 100 µL/well, and the plate was incubated at room temperature for 1 h. After the plate was washed with the washing buffer, a horseradish peroxidase (HRP)-conjugated secondary antibody was added, and the plate was incubated for another 60 min. After the plate was washed with the washing buffer, the substrate TMB solution (Thermo, 00-4201-56) was added at 100 µL/well, and the plate was incubated at room temperature for 2 min. A stop solution (2 N H₂SO₄) was added at 100 µL/well to terminate the reactions. Colorimetric signals were generated and read at 450 nm using a microplate reader (PE, Envision). The data were analyzed using GraphPad Prism5, and the EC₅₀ values were calculated.
# The humanized antibodies hz31C81-1.1 (the amino acid sequence of the heavy chain set forth in SEQ ID NO: 75 and the amino acid sequence of the light chain set forth in SEQ ID NO: 81) and hz31C8-1.2 (the amino acid sequence of the heavy chain set forth in SEQ ID NO: 77 and the amino acid sequence of the light chain set forth in SEQ ID NO: 81) were subjected to affinity, binding, blocking and cell function analyses using the methods described in Example 4, Example 5, Example 6, Example 7, Example 8, Example 9 and Example 10.
# [3] = biological target: T3, IL1R7/IL-18RAcP (Sino biological, …); assay: ELISA, plate coated with 2 µg/mL receptor
# Protocol: The anti-ST2 antibodies were diluted with PBS buffer to a concentration of 1.5 mg/mL. After being treated at 72° C. for 5 min, the samples were assayed by ELISA for their binding activity for an antigen The ELISA procedure is as follows: A 96-well plate was coated with 2 µg/mL hST2-ECD-mFc as the antigen at 100 µL/well and incubated at 4° C. overnight. After the antigen not adsorbed was well washed off, the non-specific binding sites were blocked with a blocking buffer (PBST containing 1% bovine serum albumin). After the plate was washed three times with a washing buffer (PBST, PBS containing 0.05% (v/v) Tween 20), the anti-ST2 antibodies (serially diluted 3-fold from an initial concentration of 1.5 µg/mL to 8 concentrations) were added at 100 µL/well, and the plate was incubated at 37° C. for 1 h. […] After the plate was incubated at room temperature for 5 min, a stop solution (2 N H₂SO₄) was added to stop the reactions. The signals were read at 450 nm using a plate reader (PE, Envision). The data were analyzed using GraphPad Prism5, and the EC₅₀ values were calculated.
# ST2 belongs to the IL1R receptor family. The cross-reactivity of the anti-ST2 antibodies with the IL1R family receptors was determined by ELISA. The IL1R family receptors include IL1R⅟CD121a (Sino biological, 10126-H08H), IL1R2/CD121b (Sino biological, 10111-H08H), IL1R3/IL1RAP (Sino biological, 10121-H08H), IL1R7/IL-18RAcP (Sino biological, 10176-H08H), IL1R8/IL1RAPL1 (Sino biological, 10177-H08H), and IL1R9/IL1RAPL2 (Sino biological, 10156-H08H). ELISA assays were performed using the proteins described above as antigens (2 µg/mL). See Example 13 for the specific ELISA procedure. No binding means that the antibody remains unbound to the antigen when at the highest concentration.
Binder,"IC50, blocking of the IL33/ST2-induced IL5 secretion on CD4+ T cells (hIL33 plus IL2 co-stimulation) [1]",EC50 [2],binding result [3]
"Chimeric 31C8 (antibody, human IgG2, kappa, V domains shown, also called xi31C8) VH: QVQLQQSGPELVRPGASVTLSCKASGYIFIDSEMHWVKQTPVHGLEWIGAIDPETGDTVYNQKFKGKATLTADKSSSTASMELSSLTSEDSAVYYCTGSTTDYYFAYWGQGTTLTVSS VL: DIVMTQAAFSNPVTLGTSASISCRSSKSLLHSNGIIYLYWYLQKPGQSPQLLIYQMSNLASGVPDRFSSSGSGTDFTLRISRVEAEDVGVYYCAQNLELPFTFGSGTKLEIKR",0.44 nM,0.069 nM,no binding
"RG6149 (antibody Ab2 in CN104334582, prepared in-house) (antibody, human IgG2, kappa, V domains shown, Control anti-ST2 antibody) VH: EVQLVQSGAEVKKPGESLKISCKGSGYSFTNYWIGWVRQMPGKGLEWMGIIYPGNSDTRFSPSFQGQVTISADKSITTAYLQWSSLKASDTAMYYCARHGTSSDYYGLDVWGQGTTVTVSS VL: not shown",1.82 nM,0.178 nM,no binding
"Humanized 31C8-1.1 (antibody, human IgG2, kappa, V domains shown, also called hz31C8-1.1; hz31C81-1.1) VH: EVQLVQSGAEVKKPGATVKISCKASGYIFIDSEMHWVQQAPGKGLEWMGAIDPETGDTVYAEKFQGRVTITADKSSSTAYMELSSLRSEDTAVYYCTGSTTDYYFAYWGQGTLVTVSS VL: DIQMTQSPSSLSASVGDRVTITCRSSKSLLHSNGIIYLYWYQQKPGKAPKLLIYQLSNLASGVPSRFSSSGSGTDFTLTISSLQPEDFATYYCAQNLELPFTFGQGTKVEIKR",0.462 nM,0.0716 nM,no binding
"Humanized 31C8-1.2 (antibody, human IgG2, kappa, V domains shown, also called hz31C8-1.2; hz31C81-1.2) VH: QVQLVQSGAKVKKPGATVKISCKASGYIFIDSEMHWVQQAPGKGLEWMGAIDPETGDTVYAKKFKGRVTITADKSSSTAYMELSSLRSEDTAVYYCTGSTTDYYFAYWGQGTLVTVSS VL: DIQMTQSPSSLSASVGDRVTITCRSSKSLLHSNGIIYLYWYQQKPGKAPKLLIYQLSNLASGVPSRFSSSGSGTDFTLTISSLQPEDFATYYCAQNLELPFTFGQGTKVEIKR",0.366 nM,0.0746 nM,no binding
"GSK3772847 (antibody STLM208 in CN104411333, prepared in-house) (antibody, human IgG2, kappa, V domains shown, Control anti-ST2 antibody) VH: EVQLLESGGGLVQPGGSLRLSCAASGFTFSIYDMIWVRQAPGKGLEWVSSIRGEGGGTYYADSVKGRFTISRDNSKNTLYLQMNSLRAEDTAVYYCARDPWSTEGSFFVLDYWGQGTLVTVSS VL: EIVLTQSPATLSLSPGERATLSCRASQSVDDDLAWYQQKPGQAPRLLIYDASNRATGIPARFSGSGSGTDFTLTISSLEPEDFAVYYCQQYITAPLTFGQGTKVEIKR",0.794 nM,0.242 nM,–
